Data from US20180073026, “NOVEL EXPRESSION REGULATING RNA-MOLECULES AND USES THEREOF” (Universität Wien, published 2018).

Molecular target: RNA polymerase (His6 RNAP; holoenzyme) (Escherichia coli, UniProt P0A7Z4;P0A8V2;P0A8T7;P0A800;P00579 …)
Experiment: in vitro transcription, reduction of rrnB termination vs Rev #5713, purified RNAP only
Settings: tags: His6 (Nudler Lab) or holoenzyme from Affymetrix; chain copies: 2,1,1,1,1
Method: Transcription reactions were performed in solution. Wild-type E. coli His6 RNAP (Evgeny Nudler Lab) and wild-type E. coli RNAP Holoenzyme (Affymetrix) were used in the assays. […] Then AUC RNA primer (Dharmacon) was added up to 10 μM together with GTP (25 μM) and ATP (25 μM) followed by incubation at 37° C. for 5 minutes. Next, [α-32P]-CTP (800 Ci/mmol, 2 μl, Hartmann Analytic) was added for another 2 min. To minimize RNA degradation 10 U of RNasin® Ribonuclease Inhibitor (Promega) were added to the reaction. For the reactions with Rho and NusG, the purified transcription factors were added in a concentration of up to 0.5 μM to the transcriptional mixtures where indicated, followed by additional incubation at 37° C. for 5 minutes. Chasing reaction was performed with all four NTPs added to a final concentration of 10-50 μM. To prevent re-initiation, rifampicin (Sigma) was added concurrently at this step to a final concentration of 10 μM. At the indicated time points, an aliquot of chase reaction was quenched with 3× Stop Solution, containing 100 mM EDTA, 8M UREA, 0.025% xylenthianol and 0.025% bromophenol blue. The products were separated by 6% denaturing TBE-PAGE (8M urea). […]

Binder: GACAACAUGAGAACAGUUCAGCAGCACUA (ssRNA) [RAP #5713]
- activity: > 2 fold
